According to the supplement of paper PMC7877785:
± gives the uncertainty stated by the source.

Experiment: self-splicing fitness, log relative to wild type (ln ratio); higher = more splicing; Tetrahymena group I intron in knt gene, E. coli kanamycin selection, DiMSum; sequences stand for … in CUCUCU…GGAGGGAAAAGUUAUCAGGCAUGCACCUGGUAGCUAGUCUUUAAACCAAUAGAUUGCAUCGGUUUAAAAGGCAAGACCGUCAAAUUGCGGGAAAGGGGUCAACAGCCGUUCAGUACCAAGUCUCAGGGGAAACUUUGAGAUGGCCUUGCAAAGGGUAUGGUAAUAAGCUGACGGACAUGGUCCUAACCACGCAGCCAAGUCCUAAGUCAACAGAUCUUCUGUUGAUAUGGAUGCAGUUCACAGACUAAAUGUCGGUCGGGGAAGAUGUAUUCUUCUCAUAAGAUAUAGUCGGACCUCUCCUUAAUGGGAGCUAGCGGAUGAAGUGAUGCAACACUGGAGCCGCUGGGAACUAAUUUGUAUGCGAAAGUAUAUUGAUUAGUUUUGGAGUACUCGUGGUCG
How it was run: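 The eight P1ex-region nucleotides of an intron in the knt kanamycin-resistance gene on pET-22b(+) were all randomised and the library put into E. coli BL21(DE3). Six replicate transformations were grown overnight at 37°C or 30°C on LB agar with or without 25 μg/mL kanamycin, together with 100 μg/mL carbenicillin, 50 μM IPTG and 0.2% rhamnose. Colonies were pooled and amplicon-sequenced on an Illumina HiSeq 2500. Fitness from DiMSum is the error-weighted combination of wild-type-normalised replicate fold changes, kanamycin over none.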

Sequence	self-splicing fitness (ln) (30 °C)	self-splicing fitness (ln) (37 °C)
UGUCAGCAAUAUUACGCGCC	-0.7 ± 0.18	-0.523 ± 0.23
GCUUAGCAAUAUUACGGUAA	-2.18 ± 0.14	-1.54 ± 0.13
GGAGAGCAAUAUUACGCGUG	-3.84 ± 0.33	-2.53 ± 0.18
CGGAAGCAAUAUUACGCCAG	-0.858 ± 0.27	-0.336 ± 0.26
CGCUAGCAAUAUUACGGAUU	-3 ± 0.23	-1.52 ± 0.2
GACGAGCAAUAUUACGCUGC	–	-2.49 ± 0.49
CUCUAGCAAUAUUACGCCGG	-2.98 ± 0.31	-1.92 ± 0.45
CAGCAGCAAUAUUACGUGAA	-2.06 ± 0.075	-0.955 ± 0.09
GAUAAGCAAUAUUACGGACU	-0.638 ± 0.07	-0.289 ± 0.094
ACGUAGCAAUAUUACGUCUA	-0.802 ± 0.27	-1.22 ± 0.18
GGUGAGCAAUAUUACGUUGA	-2.7 ± 0.43	-1.05 ± 0.18
AAUCAGCAAUAUUACGCCUC	-1.12 ± 0.13	-0.226 ± 0.17
GCUAAGCAAUAUUACGGACG	-0.941 ± 0.058	-0.51 ± 0.074
GACCAGCAAUAUUACGCCCC	-1.35 ± 0.17	-0.908 ± 0.17
CCCUAGCAAUAUUACGCGGU	-3.75 ± 0.16	-2.53 ± 0.18
GACAAGCAAUAUUACGGGAG	-3.18 ± 0.11	-1.52 ± 0.1
CCGAAGCAAUAUUACGGUUC	-3.74 ± 0.26	-2.66 ± 0.2
CGAUAGCAAUAUUACGGGCG	-1.67 ± 0.12	-0.602 ± 0.11
CCUAAGCAAUAUUACGUAGU	-1.3 ± 0.061	-0.474 ± 0.083
CUCCAGCAAUAUUACGCCUA	-2.87 ± 0.2	-1.94 ± 0.2
CACCAGCAAUAUUACGCCUA	-2.37 ± 0.16	-1.52 ± 0.17
UUGCAGCAAUAUUACGAAUC	–	-2.06 ± 0.47
GCGGAGCAAUAUUACGUUUC	-2.57 ± 0.39	–
UUUAAGCAAUAUUACGGUCG	-0.794 ± 0.067	-0.269 ± 0.089
ACGAAGCAAUAUUACGGAUC	-3.59 ± 0.12	-1.47 ± 0.096
CAUGAGCAAUAUUACGCAGG	-3.17 ± 0.19	-1.51 ± 0.2

Sequence	self-splicing fitness (ln) (30 °C)	self-splicing fitness (ln) (37 °C)
ACGCAGCAAUAUUACGGAAA	-2.7 ± 0.33	-0.506 ± 0.21
CAUGAGCAAUAUUACGAUAG	-1.55 ± 0.088	-0.709 ± 0.1
UCGCAGCAAUAUUACGAUUC	-3.5 ± 0.48	–
AAAAAGCAAUAUUACGGCCG	-0.279 ± 0.092	0.159 ± 0.13
CCGUAGCAAUAUUACGUGAU	-3.04 ± 0.14	-2.43 ± 0.18
UCUAAGCAAUAUUACGGGAG	-3.79 ± 0.16	-2.5 ± 0.14
AGGGAGCAAUAUUACGCUAA	–	-2.1 ± 0.49
AACUAGCAAUAUUACGCGUC	-1.95 ± 0.12	-1.65 ± 0.14
GAACAGCAAUAUUACGCUUU	-2.71 ± 0.14	-1.93 ± 0.15
CAAGAGCAAUAUUACGUAGA	-3.55 ± 0.17	-2.76 ± 0.24
GUGCAGCAAUAUUACGUUAA	-1.75 ± 0.13	-1.25 ± 0.13
GAAGAGCAAUAUUACGUAUG	-3.52 ± 0.23	-2.16 ± 0.17
GAGUAGCAAUAUUACGUGAG	-2.5 ± 0.081	-1.28 ± 0.12
CCUUAGCAAUAUUACGUCCG	-1.73 ± 0.11	-0.989 ± 0.17
UCACAGCAAUAUUACGUCCA	-0.951 ± 0.14	-0.533 ± 0.14
CAGCAGCAAUAUUACGAAUU	-4.16 ± 0.27	-2.23 ± 0.23
GGGCAGCAAUAUUACGCCCU	-2.78 ± 0.4	–
UAGGAGCAAUAUUACGCGAG	-2.32 ± 0.16	-0.56 ± 0.13
GCAUAGCAAUAUUACGUGUG	-3.17 ± 0.14	-1.57 ± 0.12
ACCAAGCAAUAUUACGGUCG	-3.81 ± 0.22	-2.56 ± 0.15
UUAUAGCAAUAUUACGGUCG	-0.705 ± 0.11	0.176 ± 0.15
UCUCAGCAAUAUUACGCGCG	-2.42 ± 0.21	-1.71 ± 0.24
GACAAGCAAUAUUACGAACC	-1.06 ± 0.14	-0.514 ± 0.17
CUACAGCAAUAUUACGUGAA	-4.26 ± 0.19	-2.08 ± 0.17
GAAAAGCAAUAUUACGCAAG	-2.02 ± 0.11	-1.46 ± 0.14
AAGUAGCAAUAUUACGCUUG	-1.6 ± 0.097	-0.42 ± 0.1

Sequence	self-splicing fitness (ln) (30 °C)	self-splicing fitness (ln) (37 °C)
GUGAAGCAAUAUUACGAGAA	-1.97 ± 0.13	-0.33 ± 0.13
UCGCAGCAAUAUUACGCGCC	-3.12 ± 0.17	-1.59 ± 0.13
GGCAAGCAAUAUUACGUCGA	-0.765 ± 0.13	-0.561 ± 0.13
CUUAAGCAAUAUUACGCUUG	-4.19 ± 0.39	-2.78 ± 0.31
UGAAAGCAAUAUUACGCCGU	-2.92 ± 0.29	-1 ± 0.16
GCGAAGCAAUAUUACGGAAA	-3.34 ± 0.36	-1.57 ± 0.27
GCGCAGCAAUAUUACGGGGG	-2.2 ± 0.12	-1.4 ± 0.12
AUAAAGCAAUAUUACGUCUC	-1.4 ± 0.093	-0.541 ± 0.13
UUCCAGCAAUAUUACGGGCU	-4.67 ± 0.31	-2.18 ± 0.17
AGGCAGCAAUAUUACGUGUG	-2.98 ± 0.11	-1.44 ± 0.096
AUUAAGCAAUAUUACGAUCU	0.226 ± 0.12	-0.0178 ± 0.16
CAGAAGCAAUAUUACGGAAA	–	-2.45 ± 0.36
UAGCAGCAAUAUUACGCCUU	-0.751 ± 0.078	-0.21 ± 0.13
UGAAAGCAAUAUUACGAGUG	-0.522 ± 0.069	0.0623 ± 0.11
CUGUAGCAAUAUUACGUAUA	-3.03 ± 0.4	-2.67 ± 0.28
UGUAAGCAAUAUUACGAAGC	-3.44 ± 0.28	-2.61 ± 0.34
CUUUAGCAAUAUUACGGGAG	-2.89 ± 0.18	-2.57 ± 0.21
GACAAGCAAUAUUACGUUGU	-3.54 ± 0.12	-2.81 ± 0.14
GAACAGCAAUAUUACGCAAC	-1.58 ± 0.097	-0.355 ± 0.13
GGGUAGCAAUAUUACGAGUA	–	0.307 ± 0.22
GAACAGCAAUAUUACGUUAA	-0.997 ± 0.068	-0.105 ± 0.08
AGCUAGCAAUAUUACGCCCU	-0.747 ± 0.13	0.627 ± 0.15
UAGUAGCAAUAUUACGCCAC	–	-1.56 ± 0.4
CCACAGCAAUAUUACGUUGG	-3.83 ± 0.11	-2.51 ± 0.13
AAUCAGCAAUAUUACGAGUC	-2.05 ± 0.11	-1.21 ± 0.11
CCGAAGCAAUAUUACGAAUG	-0.621 ± 0.059	-0.208 ± 0.076
